Measured values as given in PMC11343839, “Structural mechanism of proton conduction in otopetrin proton channel” (Nature Communications, 2024).

Assays:
[1] = molecular target: the molecule itself; assay: cryo-EM structure; single-particle cryo-EM of protein purified in GDN detergent (20 mM Tris, 150 mM NaCl, 0.04% GDN), 3.0 mg/mL; samples at pH 5.0 and 8.0 (CeOTOP8), pH 5.0, 7.0, 8.0 and 9.0 (mOTOP2), pH 8.0 (mOTOP2 M374W)
[2] = molecular target: the molecule itself; assay: SEC; loss-of-function mutants of mOTOP2 purified as a stable dimer (Supplementary Fig. 10b, not shown); the general purification ends with Superose 6 10/300 GL in 20 mM Tris pH 8.0, 150 mM NaCl, 0.04% GDN

| Protein | stoichiometry N [1] | stoichiometry N [2] |
| --- | --- | --- |
| Mus musculus Otopetrin 2 (mOTOP2), wild type (natural protein, Otopetrin 2 (mOTOP2), Mus musculus; wild type; the AlphaFold model AF-Q80SX5-F1 was the initial model; N-terminal 10x His tag, then GFP, then a thrombin cleavage site; residues of the site may remain after digestion; also called mouse OTOP2; WT mOTOP2; source: HEK293F cells (BacMam system), purified (Ni-NTA, thrombin digestion on column, Superose 6 SEC in GDN); not shown: His10, N-terminal, …) MSEELVPHPNESLPGPRASPREVWKKGGRLLSVLLAVNVLLLACTLISGGAFNKVAVYDTDVFALLTTMMLLAALWIVFYLLRTARCPDAVPYRDAHAGPIWLRGGLVLFGICTLVMDVFKTGYYSSFFECQSAIKILHPIIQAVFVIVQTYFLWISAKDCIHTHLDLTRCGLMFTLATNLAIWMAAVVDESVHQAHSYSGSHGNTSHTRLNPDSKRAGGAAEEDPCLCSTAICQIFQQGYFYLYPFNIEYSLFASTMLYVMWKNVGRLLASTHGHGHTPSRVSLFRETFFAGPVLGLLLFVVGLAVFILYEVQVSGERGHTRQALVIYYSFNIVCLGLMTLVSLSGSVIYRFDRRAMDHHKNPTRTLDVALLMGAALGQYAISYYSIVAVVVGSPRDLQGALNLSHALLMIAQHTFQNVFIIESLHRGPPGAEPREMPPKEPCQGITFANLDAIRTLPSCPPTPRLVIPNLESPQEAVAIISAPRCHWRRRCLKDISLFLLLCNVILWIMPAFGARPHFSNTVEVDFYGYSLWAAIVNICLPFGIFYRMHAVSSLLEVYVLS | 2 | – |
| mOTOP2 L30W (natural protein, Mus musculus, Otopetrin 2 (mOTOP2), Mus musculus, with the point mutation L30W on TM1; same construct as the wild-type channel; The general purification protocol removes His10-GFP with thrombin; also called mOTOP2 L30W loss-of-function mutant; source: HEK293F cells (pEZTBM vector, same construct as the wild type), purified) MSEELVPHPNESLPGPRASPREVWKKGGRWLSVLLAVNVLLLACTLISGGAFNKVAVYDTDVFALLTTMMLLAALWIVFYLLRTARCPDAVPYRDAHAGPIWLRGGLVLFGICTLVMDVFKTGYYSSFFECQSAIKILHPIIQAVFVIVQTYFLWISAKDCIHTHLDLTRCGLMFTLATNLAIWMAAVVDESVHQAHSYSGSHGNTSHTRLNPDSKRAGGAAEEDPCLCSTAICQIFQQGYFYLYPFNIEYSLFASTMLYVMWKNVGRLLASTHGHGHTPSRVSLFRETFFAGPVLGLLLFVVGLAVFILYEVQVSGERGHTRQALVIYYSFNIVCLGLMTLVSLSGSVIYRFDRRAMDHHKNPTRTLDVALLMGAALGQYAISYYSIVAVVVGSPRDLQGALNLSHALLMIAQHTFQNVFIIESLHRGPPGAEPREMPPKEPCQGITFANLDAIRTLPSCPPTPRLVIPNLESPQEAVAIISAPRCHWRRRCLKDISLFLLLCNVILWIMPAFGARPHFSNTVEVDFYGYSLWAAIVNICLPFGIFYRMHAVSSLLEVYVLS | – | 2 |
| mOTOP2 V370W (natural protein, Mus musculus, Otopetrin 2 (mOTOP2), Mus musculus, with the point mutation V370W on TM9; same construct as the wild-type channel; The general purification protocol removes His10-GFP with thrombin; also called mOTOP2 V370W loss-of-function mutant; source: HEK293F cells (pEZTBM vector, same construct as the wild type), purified) MSEELVPHPNESLPGPRASPREVWKKGGRLLSVLLAVNVLLLACTLISGGAFNKVAVYDTDVFALLTTMMLLAALWIVFYLLRTARCPDAVPYRDAHAGPIWLRGGLVLFGICTLVMDVFKTGYYSSFFECQSAIKILHPIIQAVFVIVQTYFLWISAKDCIHTHLDLTRCGLMFTLATNLAIWMAAVVDESVHQAHSYSGSHGNTSHTRLNPDSKRAGGAAEEDPCLCSTAICQIFQQGYFYLYPFNIEYSLFASTMLYVMWKNVGRLLASTHGHGHTPSRVSLFRETFFAGPVLGLLLFVVGLAVFILYEVQVSGERGHTRQALVIYYSFNIVCLGLMTLVSLSGSVIYRFDRRAMDHHKNPTRTLDWALLMGAALGQYAISYYSIVAVVVGSPRDLQGALNLSHALLMIAQHTFQNVFIIESLHRGPPGAEPREMPPKEPCQGITFANLDAIRTLPSCPPTPRLVIPNLESPQEAVAIISAPRCHWRRRCLKDISLFLLLCNVILWIMPAFGARPHFSNTVEVDFYGYSLWAAIVNICLPFGIFYRMHAVSSLLEVYVLS | – | 2 |
| mOTOP2 M374W (natural protein, Mus musculus, Otopetrin 2 (mOTOP2), Mus musculus, with the point mutation M374W on TM9; same construct as the wild-type channel; The general purification protocol removes His10-GFP with thrombin; also called mOTOP2 M374W loss-of-function mutant; source: HEK293F cells (pEZTBM vector, same construct as the wild type), purified) MSEELVPHPNESLPGPRASPREVWKKGGRLLSVLLAVNVLLLACTLISGGAFNKVAVYDTDVFALLTTMMLLAALWIVFYLLRTARCPDAVPYRDAHAGPIWLRGGLVLFGICTLVMDVFKTGYYSSFFECQSAIKILHPIIQAVFVIVQTYFLWISAKDCIHTHLDLTRCGLMFTLATNLAIWMAAVVDESVHQAHSYSGSHGNTSHTRLNPDSKRAGGAAEEDPCLCSTAICQIFQQGYFYLYPFNIEYSLFASTMLYVMWKNVGRLLASTHGHGHTPSRVSLFRETFFAGPVLGLLLFVVGLAVFILYEVQVSGERGHTRQALVIYYSFNIVCLGLMTLVSLSGSVIYRFDRRAMDHHKNPTRTLDVALLWGAALGQYAISYYSIVAVVVGSPRDLQGALNLSHALLMIAQHTFQNVFIIESLHRGPPGAEPREMPPKEPCQGITFANLDAIRTLPSCPPTPRLVIPNLESPQEAVAIISAPRCHWRRRCLKDISLFLLLCNVILWIMPAFGARPHFSNTVEVDFYGYSLWAAIVNICLPFGIFYRMHAVSSLLEVYVLS | – | 2 |
| Caenorhabditis elegans Otopetrin-like 8 (CeOTOP8), wild type, full length (natural protein, UniProt G5EDX5 1-619, looked up, Otopetrin-like 8 (CeOTOP8), Caenorhabditis elegans; wild-type full-length channel; the AlphaFold model AF-G5EDX5-F1 was the initial model; A thrombin cleavage site stood between the protein and the C-terminal 10x His tag; residues of the site may remain after digestion; also called WT CeOTOP8; source: HEK293F cells (BacMam system), purified (Ni-NTA, thrombin digestion on column, Superose 6 SEC in …)) MLMVDEQLKIGATPMYSPSHNPIVIADDMEKGGSDSDSLPSSPTHHHELYRRPWIHEPRATNFFVRLITSLYALILTIISLVVEVSPTWRTDMWLAETIFYISMYGVGILFFAYCYIFIIYPGPYNQLISVLRKYKIIKNSEVWFIMQSQHNGEGAGTLYLRLGALFFGSVGIVLFGLELFLCIENVACKKVAIAKMIVAIVFTFIQMHFIFCNSKITVNSSRKIVAFGMMHLISVNLWTWFRFVLAKQEAKAHKKAQLKQTFRKYYSSSSSSSSEEIHELISAVLNSTLNNTPATKTMEPVASRLFALEHFGDVATFLTTCIVEYSLIGAAIMFILWKSIGQNNHQQSNSGKRKVKMRIDCSSSSTGLFAGIIFLIGSLVSMGMYTIFESLRNSSGAQLVFGIVDLSLFSIALGACIIGLWRMRHLQYRLHAHGEVIDEILLIIGLIGEILYCAVGIDVFITCRRSADLTVSALPAFVFVIRMIQVVVQAAFILTTSRLRCLSKYSMKYKPGKEIITFLLVSNVTLFVFHTFEGMKSSFGFSSKAATQYNYIIYAVGPLLVFYRFHSSACLAEIWKHTYSTKSNEYDHEHMSLSDSNLTAITPISDIKEIPSPQLLKH | 2 | – |
